# Publication PMC6565677, “Kistamicin biosynthesis reveals the biosynthetic requirements for production of highly crosslinked glycopeptide antibiotics” (Nature Communications, 2019)
# B1: OxyCkis (KisO), cytochrome P450 Oxy enzyme from kistamicin biosynthesis (enzyme, UniProt A0A1V0AGL8 1-426, looked up)
# chain: MTDVTPGFVVDEATQVVTPEPDFIITRKHLEPTDSLRALRKRGALLKINGHALGSLDVDGTAYIWLATGYEVVRRILGDHENFSTRRRLTAGEPIDGTGVTPVKELVGHLMNLDPPEHTRLRRMLTPEFTLRRIRRLEPVISEIIEDHLNLIEDAGPPADLQSMYAEPVGGATLCELIGVPRDDRAEFLRRCGLHLDMSRGSKRRAADSMAFNGYLDHLIGLQRKRPDDGFIGMLVQEHGDDVTDDELRGMITVVLLAGLDNISGMLGLGVLALLEHPEQIPVIFEERAVTDRAVDELTRYLSITFQPTPRMALNDVVVDGQTIKAGEIVVCSLPMANRDEALTPDPDVLDLRRQLAGHVGFGHGVHHCLGSSVSRVVLRLAYQALWRRFPDLRLAVPPEDIVFRKAITHGPKRLPVTWGPSAATR
# notes: OxyCkis (KisO), cytochrome P450 from the kistamicin gene cluster of Actinomadura parvosata subsp. kistnae; synthetic codon-optimised gene in pET28a; Heme protein; also called kistamicin OxyC; source: E. coli ArcticExpress, purified (Ni-NTA, anion exchange, size exclusion)
# B2: OxyAkis (KisN), cytochrome P450 Oxy enzyme from kistamicin biosynthesis (enzyme)
# chain: MVAPEHRVLHLRDRLDLAAELKLLCERGPLVRIPLEDGSAVHWFALGYDVVREVLGSEKFDKRVIGTHFNHQEMALPGNLLQLDPPEHTRLRRMVAPAYSVRRMQALEPRVQAIVDDHLDTMASTGPPVEFLREVAGPMAARVACEFLGIPLDDRGELIRLTAHRGGKRRRVLNGHAYLAYMRELAARLRRDPGDGMLGMVARDHGADISDEELAGLCAVVMNSSVEQTESCLAAGTLLLLEHPEQFALLRERPELGEQAVEEIVRYLSVFEGLDPRTATEDVEIGGQVIKKGEAVFCSLLAANRADPALDGFDITRKESRHVAFGHGIHHCLGAPLARMELRIAFTTLVSRFPSLRTAVPAEEIRFRPPSSNVFTLLELPLTW
# notes: OxyAkis (KisN), cytochrome P450 from the kistamicin gene cluster of Actinomadura parvosata subsp. kistnae; synthetic codon-optimised gene in pET28a; Heme protein; also called kistamicin OxyA; source: E. coli ArcticExpress, purified (Ni-NTA, anion exchange, size exclusion)
# B3: Xkis-domain, standalone X-domain of the kistamicin NRPS (residues 1024-1493) (domain or fragment, UniProt A0A1V0AGC2 1024-1493, looked up)
# chain: RPVLGPGRRADLDPDGPLPVTARQRRMWLLSRIGDEAEGLHVRVALRLRGRLDRDALAGALADVGGRHEILRTRFPGSRRDVRQEILDAETGRPPLEICPATEDELPGLLADRAGRPFDLTGEVPWRAHLFPLTDREQVLLVVAHRIAADEESVDVLVRDLAAAYGARREGRIPERAPLALQFADYALWERELLAGADERDSLIWDQIEFWRDRLAGGDDEHADTSAPPAGRARPVLPSRRAGSVPLRLPADSHARLLEAARSAGGTMFTAVHAALAMLLSRLDGRTSVTIGTRLPRDEEQTGLVPMVGPFSRWLALPVDLSGDPAFTEILGRARDVSEDAHRHQDLPFERLAELVVPVPSITRHPIFQVALQLDEDDVRPEESWALPGLRTSPVPMPEEAMELDLWLKLLDHRTDEGDADGLVGSLVYAEDRFDRAGAEALAQRLVALLEQVGAAPEVRLSQVDVPGSE
# notes: X-domain (Oxy-recruiting domain) of the last module of the kistamicin NRPS, residues 1024-1493 of UniProt A0A1V0AGC2; Unlabelled form used for ITC and crystallisation; also called standalone Xkis domain; source: E. coli ArcticExpress, expressed as MBP fusion, purified (Ni-NTA, TEV cleavage, second Ni-NTA); not shown: His6, N-terminal, cleaved; MBP, N-terminal, cleaved
# Tests used:
# Test in all cases: ITC; 1.27 mM X-domain injected into 300-400 µM OxyA/OxyC; 25 °C, stirring 300 rpm; 50 mM phosphate pH 7.4, 150 mM NaCl, 5% v/v glycerol; single binding site model; single titration (n = 1)
# Settings in all cases: both partners purified
# [1] = target: B3
# [2] = target: B2
# [3] = target: B1
Binder,Kd [1] [µM],stoichiometry N [2],stoichiometry N [3]
B1,6.1,–,–
B2,10.4,–,–
B3,–,1,1
